Read-outs that look alike come from different tables or passages of the source.
How the values were obtained:
Assay in all cases: AUC
AUC = target: the molecule itself
A6NHR9 [1] = target: A6NHR9
A6NHR9 [2] = target: A6NHR9; remark: listed apart in the source
A6NHR9 [3] = target: A6NHR9; remark: listed apart in the source
A6NHR9 [4] = target: A6NHR9; remark: listed apart in the source
A6NHR9 [5] = target: A6NHR9; remark: listed apart in the source

B1: UBL-containing SMCHD1 ATPase (residues 25–702) (domain or fragment, human, UniProt A6NHR9 25-702, looked up)
chain: HRTVYLFDRREKESELGDRPLQVGERSDYAGFRACVCQTLGISPEEKFVITTTSRKEITCDNFDETVKDGVTLYLLQSVNQLLLTATKERIDFLPHYDTLVKSGMYEYYASEGQNPLPFALAELIDNSLSATSRNIGVRRIQIKLLFDETQGKPAVAVIDNGRGMTSKQLNNWAVYRLSKFTRQGDFESDHSGYVRPVPVPRSLNSDISYFGVGGKQAVFFVGQSARMISKPADSQDVHELVLSKEDFEKKEKNKEAIYSGYIRNRKPSDSVHITNDDERFLHHLIIEEKEKDSFTAVVITGVQPEHIQYLKNYFHLWTRQLAHIYHYYIHGPKGNEIRTSKEVEPFNNIDIEISMFEKGKVPKIVNLREIQDDMQTLYVNTAADSFEFKAHVEGDGVVEGIIRYHPFLYDRETYPDDPCFPSKLKDEDDEDDCFILEKAARGKRPIFECFWNGRLIPYTSVEDFDWCTPPKKRGLAPIECYNRISGALFTNDKFQVSTNKLTFMDLELKLKDKNTLFTRILNGQEQRMKIDREFALWLKDCHEKYDKQIKFTLFKGVITRPDLPSKKQGPWATYAAIEWDGKIYKAGQLVKTIKTLPLFYGSIVRFFLYGDHDGEVYATGGEVQIAMEPQALYDEVRTVPIAKLDRTVAEKAVKKYVEDEMARLPDRLSVTWPEGDE
stoichiometry N (AUC): 2 | Monomer (%) (A6NHR9 [1]): 76.8% | Monomer (%) (A6NHR9 [2]): 61.5% | Monomer (%) (A6NHR9 [3]): 53.4% | Monomer (%) (A6NHR9 [4]): 57.6% | Monomer (%) (A6NHR9 [5]): 88.2%

— article PMC8286825 (Biochemical Journal, 2021)
